Source: patent US20230190718A1, “METHODS FOR THE TREATMENT OF PANCREATITIS AND PREVENTION OF PANCREATIC CANCER” (BOARD OF REGENTS, THE UNIVERSITY OF TEXAS SYSTEM, priority 2020, published 2023)
“Also recorded” adds a separate entry of the source.

Legend:
[1] = system: Caerulein-induced pancreatitis; assay: Pretreatment with ADM inducers in caerulein-induced pancreatitis: histology (ADM) and CD45 infiltration; type: in vivo, mice; conditions: EGF 1.2 mg/kg i.p., two injections a day for four days, before caerulein; 24 hrs after caerulein; compared with sulindac
Text: Epigenetic modifiers: Recently, the emerging role of epigenetic regulation has led to the development of a wide spectrum of small molecules targeting selectively bromodomain and extra-terminal (BET) protein family which are currently under evaluation in preclinical model of hematological malignancies and solid tumors (Asangani et al., 2014; Delmore et al., 2011; Filippakopoulos et al., 2010). Leveraging the persistent chromatin modifications induced by an acute inflammatory event, the possibility of limiting the detrimental effects of repeated pancreatitis was tested through the administration of INCB054329, a BRD4 inhibitor currently in phase I-II clinical studies in patients with advanced malignancies (Falchook et al., 2019).
(§1) Induction of acute pancreatitis. […] Control mice received injections of pyrogen-free PBS. Mice were examined daily for health conditions and sacrificed at the indicated time points by CO2 asphyxiation and cervical dislocation.
DAPI nuclear counterstaining was also performed.

[2] = system: repeated caerulein-induced pancreatitis in iKRAS animals; assay: Pharmacological modulation of ADM in iKRAS mice rechallenged with caerulein (repeated pancreatitis); type: in vivo
Procedure: To explore the hypothesis that ADM is a physiologic, fast and reversible adaptation mediated by epithelial memory that limits the detrimental effects of repeated pancreatitis, the effects of pharmacological modulation of ADM was evaluated in iKRAS animals subjected to repeated inflammation.
as §1
For ADM quantification two hematoxylin/eosin-stained 10×-magnification fields of whole-mount pancreata from two mice each experimental group were analyzed with ImageJ. ADM areas, expressed in pixels, were normalized to control (rechallenged) mice considered as reference.
Images, then, were analyzed with ImageJ and CC3 specific signal, expressed as area (pixels), was normalized to total pancreatic parenchyma using DAPI. From six to nine 4×-magnification fields of whole-mount pancreata from three mice each experimental group were analyzed.

[3] = EGF at pharmacological doses before induction of pancreatitis
[4] = iKRAS mice pretreated before and during CAE rechallenge, p<0.01

B1: EGF (protein, UniProt P01133 23-1207, looked up)
Pro-epidermal growth factor: PQHWSCPEGTLAGNGNSTCVGPAPFLIFSHGNSIFRIDTEGTNYEQLVVDAGVSVIMDFHYNEKRIYWVDLERQLLQRVFLNGSRQERVCNIEKNVSGMAINWINEEVIWSNQQEGIITVTDMKGNNSHILLSALKYPANVAVDPVERFIFWSSEVAGSLYRADLDGVGVKALLETSEKITAVSLDVLDKRLFWIQYNREGSNSLICSCDYDGGSVHISKHPTQHNLFAMSLFGDRIFYSTWKMKTIWIANKHTGKDMVRINLHSSFVPLGELKVVHPLAQPKAEDDTWEPEQKLCKLRKGNCSSTVCGQDLQSHLCMCAEGYALSRDRKYCEDVNECAFWNHGCTLGCKNTPGSYYCTCPVGFVLLPDGKRCHQLVSCPRNVSECSHDCVLTSEGPLCFCPEGSVLERDGKTCSGCSSPDNGGCSQLCVPLSPVSWECDCFPGYDLQLDEKSCAASGPQPFLLFANSQDIRHMHFDGTDYGTLLSQQMGMVYALDHDPVENKIYFAHTALKWIERANMDGSQRERLIEEGVDVPEGLAVDWIGRRFYWTDRGKSLIGRSDLNGKRSKIITKENISQPRGIAVHPMAKRLFWTDTGINPRIESSSLQGLGRLVIASSDLIWPSGITIDFLTDKLYWCDAKQSVIEMANLDGSKRRRLTQNDVGHPFAVAVFEDYVWFSDWAMPSVMRVNKRTGKDRVRLQGSMLKPSSLVVVHPLAKPGADPCLYQNGGCEHICKKRLGTAWCSCREGFMKASDGKTCLALDGHQLLAGGEVDLKNQVTPLDILSKTRVSEDNITESQHMLVAEIMVSDQDDCAPVGCSMYARCISEGEDATCQCLKGFAGDGKLCSDIDECEMGVPVCPPASSKCINTEGGYVCRCSEGYQGDGIHCLDIDECQLGEHSCGENASCTNTEGGYTCMCAGRLSEPGLICPDSTPPPHLREDDHHYSVRNSDSECPLSHDGYCLHDGVCMYIEALDKYACNCVVGYIGERCQYRDLKWWELRHAGHGQQQKVIVVAVCVVVLVMLLLLSLWGAHYYRTQKLLSKNPKNPYEESSRDVRSRRPADTEDGMSSCPQPWFVVIKEHQDLKNGGQPVAGEDGQAADGSMQPTSWRQEPQLCGMGTEQGCWIPVSSDKGSCPQVMERSFHMPSYGTQTLEGGVEKPHSLLSANPLWQQRALDPPHQMELTQ
modifications: Pro-epidermal growth factor
notes: growth factor used as MAPK agonist / ADM inducer
infiltration of CD45 cells (marker of inflammation) [1]: almost completely suppressed; also recorded: significant decrease of CD45 infiltration
ADM formation [2, 3]: largely promoted ADM formation
tissue damage, evaluated as number of cells positive for cleaved caspase 3 [2, 3]: strong reduction of tissue damage
decreased tissue damage as indicated by CC3 immunostaining [2, 4]: ~8 fold
increase of ADM formation (relative area) with respect to control mice rechallenged with CAE alone [2, 4]: ~3 fold
